Assay results: PMC8701324, “Structural Insight into the Mechanism of PALB2 Interaction with MRG15” (Genes, 2021)

Target: MRG15 MRG domain, amino acids 155-323, Q9UBU8-2
Assay: competition assay (fluorescence anisotropy, displacement of FAM-PALB2 from MRG)
Conditions: chain shown with the change; 10 nM WT FAM-PALB2 peptide; parent: 9.8 ±2.6

Sequence of MRG15 MRG domain, amino acids 155-323, Q9UBU8-2 (Q9UBU8 194-362): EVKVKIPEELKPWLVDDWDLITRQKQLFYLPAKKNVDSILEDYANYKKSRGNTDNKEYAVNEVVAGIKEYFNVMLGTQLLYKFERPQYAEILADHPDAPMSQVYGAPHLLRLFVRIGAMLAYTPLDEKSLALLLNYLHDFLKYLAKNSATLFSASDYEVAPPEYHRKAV

Row | Ki | Binder
1 | 1.7 nM | MLSLKQLLSFLSITDFQLPDEDFGTLKLEKVKSC [WT PALB2^597-630 peptide P621T]
2 | 23.2 nM | MLSLKQLLSFLSITDFQLPHEDFGPLKLEKVKSC [WT PALB2^597-630 peptide D616H]
3 | 52.8 nM | MLSLKQLLSFLSITDFQLSDEDFGPLKLEKVKSC [WT PALB2^597-630 peptide P615S]
